± gives the standard error. For some assays here: Fewer inactive variants are shown than the library holds.

The source of these data is the supplement of paper PMC7125110.

The chains are these.
B1: glmS ribozyme (parent)
chain: AUAAAAGCGCCAGAACUACAGAAAUGUAGUUGACGAGGAGGAGGUUUAUCGAAUUUUCGGCGGAUGCCUCCAAA

Holding throughout (conditions): with glucosamine-6-phosphate
Variants of B1 are the subject of data set [1]. The data set can be described thus: kcat; higher = faster cleavage; RNA array. In short, it runs like this: (§1)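 Tracking of barcoded ribozyme variants used a hybridised Cy3 probe at 37 °C, after in situ transcription by E. coli RNA polymerase on sequenced MiSeq chips. The flowed solution held 40 μM to 10 mM glucosamine-6-phosphate in HEPES/KCl/Mg(OAc)2 buffer, and imaging ran over ~14 h. kobs was taken from exponential decay fits of normalised per-tile medians, and kcat and KM from weighted Michaelis–Menten fits.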

Variants of B1 are the subject of data set [2]. The data set can be described thus: KM; higher = weaker cofactor use; RNA array. In short, it runs like this:
as §1

The variants in data set [3] derive from B1. The data set can be described thus: self-cleavage kobs at 160 uM GlcN6P; higher = faster cleavage; RNA array. The essentials:
as §1

Variants of B1 are the subject of data set [4]. The data set can be described thus: self-cleavage kobs at 640 uM GlcN6P; higher = faster cleavage; RNA array. The essentials: as §1
Data set [5] covers variants of B1. The data set can be described thus: self-cleavage kobs at 2500 uM GlcN6P; higher = faster cleavage; RNA array. In short, it runs like this:
as §1

Variants of B1 are the subject of data set [6]. The data set can be described thus: self-cleavage kobs at 10000 uM GlcN6P; higher = faster cleavage; RNA array. In short, it runs like this: as §1
In data set [7] the parent is B1. The data set can be described thus: self-cleavage kobs at 40 uM GlcN6P; higher = faster cleavage; RNA array. In short, it runs like this: as §1

As to G13A U45A, the catalytic constant (kcat) with glucosamine-6-phosphate [1] turned out to be 0.00257 ± 0.00041 s⁻¹. Moreover, the KM in the data set with glucosamine-6-phosphate [2] was 6.91 ± 1.4 mM. Moreover, the “self-cleavage kobs at 160 uM GlcN6P” value with glucosamine-6-phosphate [3] is 5.26e-05 ± 9.7e-06 s⁻¹. In addition, the “self-cleavage kobs at 640 uM GlcN6P” value in the data set with glucosamine-6-phosphate [4] amounted to 0.000237 ± 3.3e-05 s⁻¹. In addition, the “self-cleavage kobs at 2500 uM GlcN6P” value with glucosamine-6-phosphate [5] is 0.000649 ± 0.00012 s⁻¹. Besides, the “self-cleavage kobs at 10000 uM GlcN6P” value with glucosamine-6-phosphate [6] came to 0.00152 ± 0.00022 s⁻¹.
Take A15G G32A C70G: in the data set with glucosamine-6-phosphate [1], the kcat was determined as 9.72e-05 ± 1.2e-05 s⁻¹. In addition, the “self-cleavage kobs at 160 uM GlcN6P” value with glucosamine-6-phosphate [3] stood at 0.000115 ± 3.5e-05 s⁻¹. Further, the “self-cleavage kobs at 640 uM GlcN6P” value with glucosamine-6-phosphate [4] amounted to 0.000107 ± 2.6e-05 s⁻¹. The “self-cleavage kobs at 2500 uM GlcN6P” value with glucosamine-6-phosphate [5] amounted to 7.81e-05 ± 3e-05 s⁻¹. Also, the “self-cleavage kobs at 10000 uM GlcN6P” value in the data set with glucosamine-6-phosphate [6] worked out at 9.41e-05 ± 1.1e-05 s⁻¹.
On to C58A C67G, for which the kcat with glucosamine-6-phosphate [1] came out at 9.61e-05 ± 2.2e-05 s⁻¹. The “self-cleavage kobs at 160 uM GlcN6P” value with glucosamine-6-phosphate [3] is 3.39e-05 ± 1.3e-05 s⁻¹. The “self-cleavage kobs at 640 uM GlcN6P” value in the data set with glucosamine-6-phosphate [4] stood at 6.98e-05 ± 9.8e-06 s⁻¹. In addition, the “self-cleavage kobs at 2500 uM GlcN6P” value with glucosamine-6-phosphate [5] amounted to 6.08e-05 ± 1e-05 s⁻¹. In addition, the “self-cleavage kobs at 10000 uM GlcN6P” value with glucosamine-6-phosphate [6] is 0.000124 ± 1.3e-05 s⁻¹.
Regarding C16A G40U, in the data set with glucosamine-6-phosphate [1], the catalytic constant (kcat) amounted to 9.3e-05 ± 2.3e-05 s⁻¹. In addition, the “self-cleavage kobs at 640 uM GlcN6P” value in the data set with glucosamine-6-phosphate [4] is 4.49e-05 ± 1.2e-05 s⁻¹. Besides, in the data set with glucosamine-6-phosphate [5], the “self-cleavage kobs at 2500 uM GlcN6P” value worked out at 0.000122 ± 1.6e-05 s⁻¹. The “self-cleavage kobs at 10000 uM GlcN6P” value with glucosamine-6-phosphate [6] was found to be 7.36e-05 ± 1.2e-05 s⁻¹.
Regarding G51A C67A, in the data set with glucosamine-6-phosphate [1], the turnover number (kcat) was found to be 1.27e-05 ± 2.8e-06 s⁻¹.
Take C16G U69A: the kcat in the data set with glucosamine-6-phosphate [1] is 4.79e-05 ± 1e-05 s⁻¹. Besides, the “self-cleavage kobs at 640 uM GlcN6P” value in the data set with glucosamine-6-phosphate [4] came to 6.57e-05 ± 1.6e-05 s⁻¹. In addition, the “self-cleavage kobs at 2500 uM GlcN6P” value with glucosamine-6-phosphate [5] was determined as 5.05e-05 ± 1.2e-05 s⁻¹. In addition, the “self-cleavage kobs at 10000 uM GlcN6P” value with glucosamine-6-phosphate [6] came to 3.59e-05 ± 1.2e-05 s⁻¹.
With G32A A33U, the kcat with glucosamine-6-phosphate [1] is 5.7e-05 ± 3e-06 s⁻¹. Also, the Michaelis constant (KM) in the data set with glucosamine-6-phosphate [2] is 4.53 ± 0.7 mM. Further, in the data set with glucosamine-6-phosphate [6], the “self-cleavage kobs at 10000 uM GlcN6P” value amounted to 3.92e-05 ± 6.3e-06 s⁻¹.
With G41A A48C, the kcat with glucosamine-6-phosphate [1] turned out to be 1.6e-05 ± 1.9e-06 s⁻¹. Further, in the data set with glucosamine-6-phosphate [2], the KM was found to be 2.35 ± 1 mM. In the data set with glucosamine-6-phosphate [7], the “self-cleavage kobs at 40 uM GlcN6P” value was less than 1e-05 s⁻¹. The “self-cleavage kobs at 640 uM GlcN6P” value in the data set with glucosamine-6-phosphate [4] is less than 1e-05 s⁻¹.
As to C11U G40U, the turnover number (kcat) with glucosamine-6-phosphate [1] is 0.000224 ± 2.2e-05 s⁻¹. In the data set with glucosamine-6-phosphate [2], the KM came out at 3.98 ± 0.91 mM. The “self-cleavage kobs at 640 uM GlcN6P” value with glucosamine-6-phosphate [4] turned out to be 2.87e-05 ± 7.5e-06 s⁻¹. Further, in the data set with glucosamine-6-phosphate [5], the “self-cleavage kobs at 2500 uM GlcN6P” value was found to be 0.000111 ± 3.6e-05 s⁻¹. Also, in the data set with glucosamine-6-phosphate [6], the “self-cleavage kobs at 10000 uM GlcN6P” value stood at 0.000159 ± 1.6e-05 s⁻¹.
Take U30A A52U C70U: in the data set with glucosamine-6-phosphate [1], the kcat is 7.84e-05 ± 3.9e-06 s⁻¹. Further, in the data set with glucosamine-6-phosphate [2], the Michaelis constant (KM) stood at 0.0894 ± 0.024 mM. For the same variant, in the data set with glucosamine-6-phosphate [3], the “self-cleavage kobs at 160 uM GlcN6P” value is 4.9e-05 ± 1.3e-05 s⁻¹. In addition, in the data set with glucosamine-6-phosphate [4], the “self-cleavage kobs at 640 uM GlcN6P” value was 7.62e-05 ± 1.7e-05 s⁻¹. Moreover, in the data set with glucosamine-6-phosphate [5], the “self-cleavage kobs at 2500 uM GlcN6P” value came to 7.31e-05 ± 1.4e-05 s⁻¹. Further, the “self-cleavage kobs at 10000 uM GlcN6P” value with glucosamine-6-phosphate [6] is 7.39e-05 ± 2.7e-05 s⁻¹.
Consider A15U U49A C67A, for which, in the data set with glucosamine-6-phosphate [1], the kcat was 2.42e-05 ± 8.1e-06 s⁻¹.
Regarding A39G C50U, in the data set with glucosamine-6-phosphate [1], the kcat was 0.000157 ± 2.6e-05 s⁻¹. The Michaelis-Menten constant (KM) with glucosamine-6-phosphate [2] amounted to 3.43 ± 1.2 mM. The “self-cleavage kobs at 2500 uM GlcN6P” value with glucosamine-6-phosphate [5] was found to be 6.91e-05 ± 1.4e-05 s⁻¹. The “self-cleavage kobs at 10000 uM GlcN6P” value in the data set with glucosamine-6-phosphate [6] worked out at 0.000115 ± 2.5e-05 s⁻¹.
For A14G A64G U65A, the kcat in the data set with glucosamine-6-phosphate [1] came out at 0.00407 ± 0.0014 s⁻¹. Further, the “self-cleavage kobs at 40 uM GlcN6P” value with glucosamine-6-phosphate [7] came out at 0.000284 ± 0.0001 s⁻¹. The “self-cleavage kobs at 160 uM GlcN6P” value with glucosamine-6-phosphate [3] was determined as 0.000621 ± 0.00019 s⁻¹. In addition, in the data set with glucosamine-6-phosphate [4], the “self-cleavage kobs at 640 uM GlcN6P” value is 0.00307 ± 0.0012 s⁻¹. Besides, the “self-cleavage kobs at 2500 uM GlcN6P” value in the data set with glucosamine-6-phosphate [5] was 0.00271 ± 0.0008 s⁻¹. Also, the “self-cleavage kobs at 10000 uM GlcN6P” value with glucosamine-6-phosphate [6] was 0.00718 ± 0.0031 s⁻¹.
In the case of C50U C61G, the turnover number (kcat) with glucosamine-6-phosphate [1] amounted to 1.39e-05 ± 3.3e-06 s⁻¹.
As for C11U A12U, the turnover number (kcat) with glucosamine-6-phosphate [1] turned out to be 0.00624 ± 0.00051 s⁻¹. For the same variant, the KM with glucosamine-6-phosphate [2] came out at 1.29 ± 0.15 mM. Further, the “self-cleavage kobs at 40 uM GlcN6P” value with glucosamine-6-phosphate [7] came to 0.000179 ± 1.8e-05 s⁻¹. In addition, the “self-cleavage kobs at 160 uM GlcN6P” value with glucosamine-6-phosphate [3] is 0.000886 ± 0.00016 s⁻¹. The “self-cleavage kobs at 640 uM GlcN6P” value with glucosamine-6-phosphate [4] came out at 0.00209 ± 0.00035 s⁻¹. The “self-cleavage kobs at 2500 uM GlcN6P” value in the data set with glucosamine-6-phosphate [5] came to 0.00418 ± 0.00075 s⁻¹. The “self-cleavage kobs at 10000 uM GlcN6P” value with glucosamine-6-phosphate [6] was 0.00547 ± 0.00057 s⁻¹.
As to U31A G40U, in the data set with glucosamine-6-phosphate [1], the turnover number (kcat) came out at 0.00159 ± 0.00017 s⁻¹. Also, the KM in the data set with glucosamine-6-phosphate [2] came out at 1.08 ± 0.24 mM. Moreover, in the data set with glucosamine-6-phosphate [7], the “self-cleavage kobs at 40 uM GlcN6P” value is 6.29e-05 ± 1.4e-05 s⁻¹. Moreover, in the data set with glucosamine-6-phosphate [4], the “self-cleavage kobs at 640 uM GlcN6P” value was found to be 0.000444 ± 0.00018 s⁻¹. Further, the “self-cleavage kobs at 2500 uM GlcN6P” value in the data set with glucosamine-6-phosphate [5] worked out at 0.00109 ± 0.00024 s⁻¹. In addition, in the data set with glucosamine-6-phosphate [6], the “self-cleavage kobs at 10000 uM GlcN6P” value was 0.00148 ± 0.00022 s⁻¹.
As for A39G U45C, the catalytic constant (kcat) in the data set with glucosamine-6-phosphate [1] turned out to be 0.0102 ± 0.0019 s⁻¹. Moreover, the KM with glucosamine-6-phosphate [2] was 3.81 ± 0.98 mM. Also, the “self-cleavage kobs at 40 uM GlcN6P” value with glucosamine-6-phosphate [7] was 0.00012 ± 2.4e-05 s⁻¹. Besides, in the data set with glucosamine-6-phosphate [4], the “self-cleavage kobs at 640 uM GlcN6P” value was determined as 0.00126 ± 0.00034 s⁻¹. Also, the “self-cleavage kobs at 2500 uM GlcN6P” value in the data set with glucosamine-6-phosphate [5] is 0.00381 ± 0.0011 s⁻¹. The “self-cleavage kobs at 10000 uM GlcN6P” value with glucosamine-6-phosphate [6] is 0.00774 ± 0.0016 s⁻¹.
